Measurements as given in publication PMC11139864.

What was measured:
[1] = target: Thogoto virus (THOV) polymerase, full-length heterotrimer of PB2, PB1 and PA (Thogoto virus (isolate SiAr 126)) (UniProt Q9YNA4); assay: cryo-EM structure; replicative elongation sample: 3.2 uM THOVPol, 30 °C for 6 h with 1.6 uM 3' vRNA, 1.6 uM 5' vRNA, 160 uM primer pppApG, 1.6 mM each ATP and CTP; 25 mM Tris-HCl pH 7.5, 300 mM NaCl, 2 mM MnCl2, 8 mM TCEP, 1% glycerol; asymmetric dimer of two heterotrimers (THOVPol-ELR with THOVPol-RER) beside a monomeric form
[2] = target: Thogoto virus (THOV) polymerase, full-length heterotrimer of PB2, PB1 and PA (Thogoto virus (isolate SiAr 126)) (UniProt Q9YNA4)
[3] = target: Thogoto virus (THOV) polymerase, full-length heterotrimer of PB2, PB1 and PA (Thogoto virus (isolate SiAr 126)) (UniProt Q9YNA4); assay: cryo-EM structure; transcriptional elongation sample: 3.2 uM THOVPol, 30 °C for 6 h with 2.5 uM 3' vRNA, 2.5 uM 5' vRNA, 160 uM capped primer m7GpppAmG, 1.6 mM each ATP and CTP; 25 mM Tris-HCl pH 7.5, 300 mM NaCl, 2 mM MnCl2, 8 mM TCEP, 1% glycerol; asymmetric dimer of two heterotrimers (THOVPol-EL with THOVPol-RE) beside monomeric forms

“Thogoto virus (THOV) polymerase, full-length heterotrimer of PB2, PB1 and PA (from UniProt Q9YNA4 1-769; Q9YNA4 1-769; Q9YNA4 1-769) (complex)” gave a stoichiometry N [1] of 2, a reduction of mRNA and cRNA levels in the mini-replicon assay (RT-qPCR) with PB2-HA D547A/F549A (dimer interface 1) [2] of over 100 fold and a reduction of mRNA and cRNA levels in the mini-replicon assay (RT-qPCR) with PB2-HA F134A/W138A (dimer interface 2) [2] of over 100 fold. It also gave a reduction of mRNA and cRNA levels in the mini-replicon assay (RT-qPCR) with PB2-HA Q295A/D547A/I653A (dimer interfaces 1 and 3) [2] of over 100 fold and a stoichiometry N [3] of 2.
